The target of this test is T1, Human macrophage migration inhibitory factor (MIF) (human), P14174.
T1 chain: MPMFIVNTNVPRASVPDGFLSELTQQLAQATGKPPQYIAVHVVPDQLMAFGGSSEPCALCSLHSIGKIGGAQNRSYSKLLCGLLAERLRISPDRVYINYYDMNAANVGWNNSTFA
As to the kind of experiment: crystal structure; MIF (~18 mg/mL) co-crystallised with the small molecule T-614 at 1:3 protein-inhibitor molar ratio; hanging drop vapor diffusion; 20 mM Tris HCl pH 7.5, 2 M (NH4)2SO4, 3% 2-propanol; 20 C. The settings on record: remark: other sources report otherwise.

Among the data in article PMC10976746, “Iguratimod, an allosteric inhibitor of macrophage migration inhibitory factor (MIF), prevents mortality and oxidative stress in a murine model of acetaminophen overdose” (Molecular Medicine, 2024) are stoichiometry N values, retold here.

B1: Human macrophage migration inhibitory factor (MIF), P14174 1-115 (natural protein)
chain: T1 chain
Broadly, the stoichiometry N is the number of molecules, sites or subunits per partner or assembly. For B1, the stoichiometry N is 3.
